Consider 1 molecule from paper PMC8008340 (Cell, 2021).

The test concerns the target T1, WT RBD (Wuhan SARS-CoV-2 RBD) (Severe acute respiratory syndrome …, UniProt P0DTC2).
T1 construct: also called Wuhan RBD; native RBD
In words: crystal structure. The conditions noted are these: both partners purified.

B1: EY6A Fab (Fab, V domains shown)
VH: EVQLVESGGGVVQPGRSLRLSCAASAFTFSSYDMHWVRQAPGKGLEWVAVISYDGSNKYYADSVKGRFTISRDNSKNTLYLQMNSLRAEDTAVYYCAKDGGKLWVYYFDYWGQGTLVTVSS
VL: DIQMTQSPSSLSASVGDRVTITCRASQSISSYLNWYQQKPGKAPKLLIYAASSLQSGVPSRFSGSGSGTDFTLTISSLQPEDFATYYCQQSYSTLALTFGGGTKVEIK
As to B1, the binding result was “binds”.
